# Data reported in publication PMC8489136, “LncRNA MALAT1 was regulated by HPV16 E7 independently of pRB in cervical cancer cells”.
# B1: MALAT1 promoter probe1 (dsDNA)
# DNA 1: CAGGCGTTAGGGCGGGGCGCGCGTGC
# DNA 2: GCACGCGCGCCCCGCCCTAACGCCTG
# modifications: 5'-biotin
# B2: MALAT1 promoter probe2 (dsDNA)
# DNA 1: AGCTGCCACCCCGCCCCCATGCCAT
# DNA 2: ATGGCATGGGGGCGGGGTGGCAGCT
# modifications: 5'-biotin
# Molecular target: HPV16 E7 (His-E7) (Human papillomavirus type 16, UniProt P03129 1-98)
# Assay: EMSA; inhibited by excess unlabeled probe; EMSA buffer, salt, pH and temperature not given; UV crosslinking: 20 min incubation in binding buffer (composition not given), 254 nm 30 min on ice
# Conditions: protein: recombinant; tags: His; label: biotin; blunt
# Chain of HPV16 E7 (His-E7) (P03129 whole entry): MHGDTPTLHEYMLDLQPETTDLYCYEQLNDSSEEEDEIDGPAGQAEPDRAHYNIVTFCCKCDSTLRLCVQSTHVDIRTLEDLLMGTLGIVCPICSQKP
binder,measurement,value
B1,binding result,binds
B2,binding result,binds
